The results in this text go back to paper PMC6299077 (Nature Communications, 2018).

The data set deals with the molecule itself. The experiment in a line: SEC; […] (~2.7–27 μM), […] (pH 4.4–5.6); […]. On the technique in general: In gel filtration, larger molecules generally elute earlier.

B1: tHN of BoNT/A1 (beltless translocation domain of botulinum neurotoxin A1, residues K547–K871) (domain or fragment)
chain: KYTMFHYLRAQEFEHGKSRIALTNSVNEALLNPSRVYTFFSSDYVKKVNKATEAAMFLGWVEQLVYDFTDETSEVSTTDKIADITIIIPYIGPALNIGNMLYKDDFVGALIFSGAVILLEFIPEIAIPVLGTFALVSYIANKVLTVQTIDNALSKRNEKWDEVYKYIVTNWLAKVNTQIDLIRKKMKEALENQAEATKAIINYQYNQYTEEEKNNINFNIDDLSSKLNESINKAMININKFLNQCSVSYLMNSMIPYGVKRLEDFDASLKDALLKYIYDNRGTLIGQVDRLKDKVNNTLSTDIPFQLSKYVDNQRLLSTFTEYIK
Consider B1, for which the binding result is recorded as “binds”.
